# Experimental data: paper PMC2837404, “The Human Polyoma JC Virus Agnoprotein Acts as a Viroporin” (PLoS Pathogens, 2010)
# “And” between values parts separate entries of the source, which are not always exact repeats. Equal entries are not always repeated.
# Target: the molecule itself
# Experiment: cross-linking; SVG-A cells infected with JCV for 1 week, reacted as whole cells with 0.5, 1, 2 or 5 mM DSS (or DMSO) for 2 h at 4°C in DPBS (+), quenched with 50 mM Tris pH 7.5, lysed in 1% Triton X-100; SDS-PAGE and immunoblot with anti-agnoprotein antibody
protein,measurement,value
"JCV agnoprotein expressed in JCV-infected SVG-A cells (natural protein, JC virus (JCV) agnoprotein made from the viral genome in infected cells; monomer about 8 kDa; The virus was prepared from JCI cells or JC virus-infected SVG-A cells; source: SVG-A cells infected with JCV for 1 week) MVLRQLSRKASVKVSKTWSGTKKRAQRILIFLLEFLLDFCTGEDSVDGKKRQRHSGLTEQTYSALPEPKAT",stoichiometry N,2 and 3 and 4 and 5
